B1: ACSBG2 (parent)
chain: TPMTIPEFFRESVNRFGTYPALAS

Variants of: B1
Experiment: protein stability index of a GFP-peptide fusion (GPS, HEK-293T) (PSI 1-6); higher = more stable
Details: c terminus: a fixed tail appended
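Further: lentivirally expressed fusions sorted by FACS into six bins by GFP to DsRed ratio, PSI derived from sequencing read proportions per bin multiplied by bin number.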

Compared with TPMTIPEFFRECVNRFGTYPALAS, TPMTIPEFFREDVNRFGTYPALAS is higher in protein stability index: 1.53 for the first, 2.96 for the second.

Compared with TPMTIPEFFREEVNRFGTYPALAS, TPMTIPEFFREFVNRFGTYPALAS is lower in protein stability index: 2.69 for the first, 1.66 for the second.

Going from TPMTIPEFFREGVNRFGTYPALAS to TPMTIPEFFREHVNRFGTYPALAS, the protein stability index falls from 2.48 to 2.27.

Compared with TPMTIPEFFREIVNRFGTYPALAS, TPMTIPEFFREKVNRFGTYPALAS is higher in protein stability index: 1.76 for the first, 2.17 for the second.

Compared with TPMTIPEFFRELVNRFGTYPALAS, TPMTIPEFFREMVNRFGTYPALAS is higher in protein stability index: 2.01 for the first, 2.64 for the second.

Compared with TPMTIPEFFRENVNRFGTYPALAS, TPMTIPEFFREPVNRFGTYPALAS is higher in protein stability index: 2.25 for the first, 2.47 for the second.

Compared with TPMTIPEFFREQVNRFGTYPALAS, TPMTIPEFFRERVNRFGTYPALAS is lower in protein stability index: 2.65 for the first, 2.25 for the second.

First: TPMTIPEFFRETVNRFGTYPALAS
Second: TPMTIPEFFREVVNRFGTYPALAS
The protein stability index of the first is lower: 2.02 for the first, 2.19 for the second.

First: TPMTIPEFFREWVNRFGTYPALAS
Second: TPMTIPEFFREYVNRFGTYPALAS
The protein stability index of the first is lower: 1.39 for the first, 1.86 for the second.

First: TPMTIPEFFRESANRFGTYPALAS
Second: TPMTIPEFFRESCNRFGTYPALAS
The protein stability index of the first is lower: 2.42 for the first, 3.09 for the second.

Going from TPMTIPEFFRESDNRFGTYPALAS to TPMTIPEFFRESENRFGTYPALAS, the protein stability index falls from 2.79 to 2.78.

First: TPMTIPEFFRESFNRFGTYPALAS
Second: TPMTIPEFFRESGNRFGTYPALAS
The protein stability index of the first is lower: 1.97 for the first, 2.2 for the second.

Going from TPMTIPEFFRESHNRFGTYPALAS to TPMTIPEFFRESINRFGTYPALAS, the protein stability index falls from 2.59 to 2.56.

First: TPMTIPEFFRESKNRFGTYPALAS
Second: TPMTIPEFFRESLNRFGTYPALAS
The protein stability index of the first is higher: 2.31 for the first, 2.09 for the second.

Compared with TPMTIPEFFRESMNRFGTYPALAS, TPMTIPEFFRESNNRFGTYPALAS is higher in protein stability index: 2.41 for the first, 2.84 for the second.

Compared with TPMTIPEFFRESPNRFGTYPALAS, TPMTIPEFFRESQNRFGTYPALAS is lower in protein stability index: 2.43 for the first, 2.28 for the second.

First: TPMTIPEFFRESRNRFGTYPALAS
Second: TPMTIPEFFRESSNRFGTYPALAS
The protein stability index of the first is lower: 2.37 for the first, 2.44 for the second.

First: TPMTIPEFFRESTNRFGTYPALAS
Second: TPMTIPEFFRESWNRFGTYPALAS
The protein stability index of the first is higher: 2.98 for the first, 1.76 for the second.

First: TPMTIPEFFRESYNRFGTYPALAS
Second: TPMTIPEFFRESVARFGTYPALAS
The protein stability index of the first is higher: 2.64 for the first, 2.51 for the second.

Going from TPMTIPEFFRESVCRFGTYPALAS to TPMTIPEFFRESVDRFGTYPALAS, the protein stability index rises from 1.83 to 2.65.

First: TPMTIPEFFRESVERFGTYPALAS
Second: TPMTIPEFFRESVFRFGTYPALAS
The protein stability index of the first is higher: 2.81 for the first, 1.66 for the second.

First: TPMTIPEFFRESVGRFGTYPALAS
Second: TPMTIPEFFRESVHRFGTYPALAS
The protein stability index of the first is higher: 2.18 for the first, 2.05 for the second.

Compared with TPMTIPEFFRESVIRFGTYPALAS, TPMTIPEFFRESVKRFGTYPALAS is higher in protein stability index: 1.83 for the first, 2.54 for the second.

Compared with TPMTIPEFFRESVLRFGTYPALAS, TPMTIPEFFRESVMRFGTYPALAS is higher in protein stability index: 1.62 for the first, 2.39 for the second.

Going from TPMTIPEFFRESVPRFGTYPALAS to TPMTIPEFFRESVQRFGTYPALAS, the protein stability index falls from 2.66 to 2.24.

Going from TPMTIPEFFRESVRRFGTYPALAS to TPMTIPEFFRESVSRFGTYPALAS, the protein stability index rises from 2.01 to 2.51.

First: TPMTIPEFFRESVTRFGTYPALAS
Second: TPMTIPEFFRESVVRFGTYPALAS
The protein stability index of the first is higher: 2.23 for the first, 1.93 for the second.

Going from TPMTIPEFFRESVWRFGTYPALAS to TPMTIPEFFRESVYRFGTYPALAS, the protein stability index rises from 1.74 to 1.88.

First: TPMTIPEFFRESVNAFGTYPALAS
Second: TPMTIPEFFRESVNCFGTYPALAS
The protein stability index of the first is higher: 2.41 for the first, 2.12 for the second.

First: TPMTIPEFFRESVNDFGTYPALAS
Second: TPMTIPEFFRESVNEFGTYPALAS
The protein stability index of the first is higher: 2.78 for the first, 2.62 for the second.

Compared with TPMTIPEFFRESVNFFGTYPALAS, TPMTIPEFFRESVNGFGTYPALAS is lower in protein stability index: 2.25 for the first, 1.97 for the second.

Going from TPMTIPEFFRESVNHFGTYPALAS to TPMTIPEFFRESVNIFGTYPALAS, the protein stability index rises from 2.14 to 2.24.

Compared with TPMTIPEFFRESVNKFGTYPALAS, TPMTIPEFFRESVNLFGTYPALAS is higher in protein stability index: 2.1 for the first, 2.38 for the second.

Going from TPMTIPEFFRESVNMFGTYPALAS to TPMTIPEFFRESVNNFGTYPALAS, the protein stability index rises from 1.8 to 2.5.

First: TPMTIPEFFRESVNPFGTYPALAS
Second: TPMTIPEFFRESVNQFGTYPALAS
The protein stability index of the first is lower: 2.04 for the first, 2.69 for the second.

First: TPMTIPEFFRESVNSFGTYPALAS
Second: TPMTIPEFFRESVNTFGTYPALAS
The protein stability index of the first is higher: 2.64 for the first, 2.57 for the second.

First: TPMTIPEFFRESVNVFGTYPALAS
Second: TPMTIPEFFRESVNWFGTYPALAS
The protein stability index of the first is higher: 2.41 for the first, 1.52 for the second.

Compared with TPMTIPEFFRESVNYFGTYPALAS, TPMTIPEFFRESVNRAGTYPALAS is higher in protein stability index: 1.99 for the first, 3.51 for the second.

Going from TPMTIPEFFRESVNRCGTYPALAS to TPMTIPEFFRESVNRDGTYPALAS, the protein stability index rises from 2.54 to 3.62.

First: TPMTIPEFFRESVNREGTYPALAS
Second: TPMTIPEFFRESVNRGGTYPALAS
The protein stability index of the first is higher: 3.37 for the first, 2.48 for the second.

First: TPMTIPEFFRESVNRHGTYPALAS
Second: TPMTIPEFFRESVNRIGTYPALAS
The protein stability index of the first is higher: 3.03 for the first, 2.36 for the second.

Compared with TPMTIPEFFRESVNRKGTYPALAS, TPMTIPEFFRESVNRLGTYPALAS is lower in protein stability index: 3.22 for the first, 2.11 for the second.

Going from TPMTIPEFFRESVNRMGTYPALAS to TPMTIPEFFRESVNRNGTYPALAS, the protein stability index rises from 3.39 to 3.41.

Compared with TPMTIPEFFRESVNRPGTYPALAS, TPMTIPEFFRESVNRQGTYPALAS is lower in protein stability index: 2.92 for the first, 2.8 for the second.

Compared with TPMTIPEFFRESVNRRGTYPALAS, TPMTIPEFFRESVNRSGTYPALAS is lower in protein stability index: 2.86 for the first, 2.71 for the second.

Compared with TPMTIPEFFRESVNRTGTYPALAS, TPMTIPEFFRESVNRVGTYPALAS is lower in protein stability index: 2.87 for the first, 2.64 for the second.

Going from TPMTIPEFFRESVNRWGTYPALAS to TPMTIPEFFRESVNRYGTYPALAS, the protein stability index rises from 2.16 to 2.22.

From the supplement of paper PMC10567573
